The text below walks through data of paper doi:10.1101/2023.02.16.528878 (bioRxiv, 2023).

B1: recombinant UFC1 (enzyme)
chain: MADEATRRVVSEIPVLKTNAGPRDRELWVQRLKEEYQSLIRYVENNKNADNDWFRLESNKEGTRWFGKCWYIHDLLKYEFDIEFDIPITYPTTAPEIAVPELDGKTAKMYRGGKICLTDHFKPLWARNVPKFGLAHLMALGLGPWLAVEIPDLIQKGVIQHKEKCNQ

One assay concerns the target T1, GST-CDK5RAP3 (human, UniProt Q96JB5 1-506).
T1 sequence: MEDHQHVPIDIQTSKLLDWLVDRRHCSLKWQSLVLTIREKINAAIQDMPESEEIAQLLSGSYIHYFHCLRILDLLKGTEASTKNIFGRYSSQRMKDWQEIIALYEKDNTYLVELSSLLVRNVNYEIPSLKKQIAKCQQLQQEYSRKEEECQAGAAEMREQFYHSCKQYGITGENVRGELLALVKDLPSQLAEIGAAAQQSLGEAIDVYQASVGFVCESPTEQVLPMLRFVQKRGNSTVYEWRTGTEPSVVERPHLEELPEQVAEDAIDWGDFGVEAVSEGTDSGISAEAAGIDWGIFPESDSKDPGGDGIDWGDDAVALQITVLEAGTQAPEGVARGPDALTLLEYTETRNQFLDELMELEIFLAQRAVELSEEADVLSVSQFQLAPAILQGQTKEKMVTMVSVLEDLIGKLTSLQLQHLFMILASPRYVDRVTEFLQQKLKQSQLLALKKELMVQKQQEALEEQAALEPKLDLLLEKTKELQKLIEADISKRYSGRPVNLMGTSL
In words: pull-down.

The target in the assay “recombinant UFC1” is B1. Briefly: ITC. (ITC needs no label: the signal is the heat of the interaction.)

As for B1, the binding result in the assay with GST-CDK5RAP3 is given as “binds”.
Consider MADAWEEIRRLAADFQRAQFA [UFL1^UBS peptide, UFL1(1-21)], for which the Kd (as a rule, the concentration at which binding is half-saturated) with recombinant UFC1 amounted to 410 nM.
